Laboratory results as given in publication doi:10.1101/2022.02.18.481027, “Structural insights into the assembly and activation of IL-27 signalling complex” (bioRxiv, 2022).

T1: Murine GP130 ectodomain with C-terminal biotin acceptor peptide, biotinylated (murine, UniProt Q00560 23-319, biotin on the biotin acceptor peptide (BirA ligase))
T1 chain: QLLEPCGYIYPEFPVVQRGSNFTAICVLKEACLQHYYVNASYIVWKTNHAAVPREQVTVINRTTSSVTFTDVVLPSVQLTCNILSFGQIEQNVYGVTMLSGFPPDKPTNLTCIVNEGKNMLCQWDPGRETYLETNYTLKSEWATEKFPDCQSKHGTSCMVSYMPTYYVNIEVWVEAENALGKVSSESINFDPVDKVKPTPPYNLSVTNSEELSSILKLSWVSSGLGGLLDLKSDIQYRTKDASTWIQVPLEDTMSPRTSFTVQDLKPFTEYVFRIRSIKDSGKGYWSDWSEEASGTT

T2: Murine IL-27Rα ectodomain (amino acids 28-224), N-terminally biotinylated (murine, UniProt O70394 28-224, N-terminal biotin (EZ-Link Sulfo-NHS-SS-Biotin, at pH 6.5))
T2 chain: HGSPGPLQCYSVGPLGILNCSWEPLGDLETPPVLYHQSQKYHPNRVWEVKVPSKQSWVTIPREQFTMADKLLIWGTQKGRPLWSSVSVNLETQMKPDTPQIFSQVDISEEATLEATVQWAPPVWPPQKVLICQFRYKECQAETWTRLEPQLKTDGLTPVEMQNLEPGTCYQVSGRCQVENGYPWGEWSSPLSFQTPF

T3: p28 (IL-27p28), recombinant, alone (murine, UniProt Q8K3I6 29-234)
T3 construct: IL-27p28 (p28) without EBI3; the construct is not described; The methods of expression name no p28 construct; source: recombinantly produced
T3 sequence (looked up): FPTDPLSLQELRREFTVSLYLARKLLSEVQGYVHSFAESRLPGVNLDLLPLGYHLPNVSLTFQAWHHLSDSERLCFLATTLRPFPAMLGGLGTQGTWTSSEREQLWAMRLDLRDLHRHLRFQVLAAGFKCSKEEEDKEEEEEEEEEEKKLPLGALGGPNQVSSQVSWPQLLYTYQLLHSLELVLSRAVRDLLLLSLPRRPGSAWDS

B1: Murine IL-27, linker-connected single-chain variant (p28+EBI3) (ligand)
chain 1: YTETALVALSQPRVQCHASRYPVAVDCSWTPLQAPNSTRSTSFIATYRLGVATQQQSQPCLQRSPQASRCTIPDVHLFSTVPYMLNVTAVHPGGASSSLLAFVAERIIKPDPPEGVRLRTAGQRLQVLWHPPASWPFPDIFSLKYRLRYRRRGASHFRQVGPIEATTFTLRNSKPHAKYCIQVSAQDLTDYGKPSDWSLPGQVESAPHKP
chain 2: T3 sequence (looked up)
B2: Murine IL-27Rα ectodomain (amino acids 28-224), N-terminally biotinylated (receptor, UniProt O70394 28-224, looked up)
chain: T2 chain
modifications: N-terminal biotin (EZ-Link Sulfo-NHS-SS-Biotin, at pH 6.5)
notes: murine IL-27Rα, amino acids 28-224; also called biotinylated IL-27Rα; source: baculovirus, Trichoplusia ni (High Five) cells, secreted, purified (Ni-NTA, SEC), biotinylated in vitro

Legend:
[1] = target: T1, Murine GP130 ectodomain with C-terminal …; assay: SPR
[2] = target: T2, Murine IL-27Rα ectodomain (amino acids …); assay: SPR
[3] = target: T3, p28 (IL-27p28), recombinant, alone; assay: SPR; biotinylated IL-27Rα or GP130 immobilised on a streptavidin chip (Series S Sensor SA), p28 flowed over; equilibrium analysis; 10 mM HEPES, 150 mM NaCl, 0.05% TWEEN-20, 0.5% BSA; Biacore T100; conditions: both partners purified

Row | Binder | koff [1] [s⁻¹] | koff [2] [s⁻¹] | Kd [3] [nM]
1 | B1 | 0.021 | 0.001 | 
2 | B2 |  |  | 2800
